# Assay results reported in patent US20240158477A1.
# Experiments:
# [1] = target: RBD-Fc (SARS-CoV-2 S protein amino acids 319-541 with human IgG1 Fc) (SARS-CoV-2; human) (UniProt P0DTC2)
# [2] = target: SARS-CoV-2 S protein (wildtype) (SARS-CoV-2) (UniProt P0DTC2); experiment: cell-based or functional assay
substance,measurement,setting,value
Fc tagged VHH72 (Fc fusion),EC50 (read off the curve),[1],0.2 nM
same,"IC50, authentic SARS-CoV-2 neutralization on Vero-E6 cells (viral RNA by RT-PCR)",[2],13.8 nM
